For six molecules, Kd results are on record in paper PMC5007448, “Molecular logic of the Zur-regulated zinc deprivation response in Bacillus subtilis”.

Among the targets are Zur WT (BsZur) (Bacillus subtilis, UniProt P54479 1-145); Zur H124A (Bacillus subtilis, UniProt P54479 1-145, H124A); Zur C84S (Bacillus subtilis, UniProt P54479 1-145, C84S).
Experiment in all cases: EMSA; 0.1 uM ZnSO4; 20 mM Tris-HCl pH 6.4, 50 mM KCl, 1 mM DTT, 0.1 mg/ml BSA, 5% glycerol, 0.1 ug poly(dI-dC) in 20 ul, 0.1 uM ZnSO4; room temperature 20 min; gel at 4 C in TA pH
What all share (details): protein: recombinant; tags: none stated; chain copies: 2; label: 5'-32P; blunt
Background: A gel shift assay detects complexes by their altered migration in electrophoresis.

B1: PzinT (dsDNA)
DNA 1: ATGTATGTATAATAAATCGTAATGTTTTCGATTTAATAAAAAAGG
DNA 2: CCTTTTTTATTAAATCGAAAACATTACGATTTATTATACATACAT
In general, Kd refers to the concentration at which binding is half-saturated. Regarding B1, the dissociation constant (Kd) worked out at 15.6 ± 3.5 nM in the data set with Zur WT (BsZur), 96 ± 1.3 nM in the data set with Zur H124A and 75.5 ± 5.3 nM with Zur C84S.

B2: PfolEB (dsDNA)
DNA 1: ACCGATCAAAATAAATAGTAATTATTACGATTTGTTAGTGAGAGG
DNA 2: CCTCTCACTAACAAATCGTAATAATTACTATTTATTTTGATCGGT
Take B2: the Kd turned out to be 21.9 ± 3.9 nM with Zur WT (BsZur), 100 ± 4 nM with Zur H124A and 28.6 ± 2.5 nM in the data set with Zur C84S.

B3: PrpsNB (dsDNA)
DNA 1: GAATGATACATTTTAAATCGTAACAATTTCGATTTAAAGGGAGGC
DNA 2: GCCTCCCTTTAAATCGAAATTGTTACGATTTAAAATGTATCATTC
In the case of B3, the results for the Kd with Zur WT (BsZur), with Zur H124A and with Zur C84S were 14.3 ± 2.5 nM, 99 ± 1.6 nM and 16.5 ± 2.5 nM, respectively.

B4: PrpmEB (dsDNA)
DNA 1: GTAAGGTTATAAAATAAAACGTAATTATTACGATTTATTGAAAGG
DNA 2: CCTTTCAATAAATCGTAATAATTACGTTTTATTTTATAACCTTAC
In the case of B4, the figures for the Kd with Zur WT (BsZur), with Zur H124A and in the data set with Zur C84S were 14.3 ± 2.6 nM, 101 ± 2.3 nM and 77.9 ± 4 nM, respectively.

B5: PznuA (dsDNA)
DNA 1: ATTTATTCTTGCAAAACGTAATGACTTCGGTTTATTATGATATAG
DNA 2: CTATATCATAATAAACCGAAGTCATTACGTTTTGCAAGAATAAAT
For the molecule B5, the dissociation constant (Kd) in the data set with Zur WT (BsZur) was 12.5 ± 4 nM; in the data set with Zur H124A it was 110 ± 3 nM; with Zur C84S, 73 ± 2 nM.

B6: PyciC (dsDNA)
DNA 1: ACCATACAATTTAAGTCGTAACAATTACGTTTTATGATAAATGGC
DNA 2: GCCATTTATCATAAAACGTAATTGTTACGACTTAAATTGTATGGT
Turning to B6, the results for the Kd with Zur WT (BsZur), with Zur H124A and with Zur C84S were 25.4 ± 1.1 nM, 129 ± 3.8 nM and 80.6 ± 3.2 nM, respectively.
